# System: PPO-deficient BT3 E. coli (ΔPPO)
# Test: PPO-inhibiting herbicide tolerance test of PPO variants in E. coli (growth on herbicide-containing LB agar)
# Assay type: cell-based
# Conditions: CyPPO19 variants in BT3 (ΔPPO) E. coli; LB agar with 0 to 2,000 μM herbicide, 37° C., dark, 16-20 hours
# Method in brief: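 PPO-deficient BT3 E. coli expressing each variant from pET303 were diluted to OD600=0.5, then 10-fold serially, and spotted on LB-ampicillin agar with 0 to 2,000 μM herbicide. After 16-20 h at 37° C. in the dark, growth relative to wild type was scored from '−' (equivalent) to '+' per 10-fold resistance, max '+++++'.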
Molecule,"tolerance level relative to wild type, Carfentrazone","tolerance level relative to wild type, Flumioxazin","tolerance level relative to wild type, Fomesafen","tolerance level relative to wild type, Oxyfluorfen","tolerance level relative to wild type, Saflufenacil","tolerance level relative to wild type, Sulfentrazone","tolerance level relative to wild type, Tiafenacil"
"CyPPO19 L327T + F360L: variant of CyPPO19 PPO protein (SEQ ID NO: 1) (protein, Synthetic_PPO of Thermosynechococcus elongatus PKUAC-SCTE542 (comprising GenBank No. CP032152.1)) MSEVDVAIVGGGLSGLSLAWRLQQSAPQYSVVLLEASDRLGGNITTQTAEGFVWELGPNSFAPTPALLQLIAEVGLQSELIRGDRHLPRYIYWRGQLYPLQPTRPLALATSNLLSPWGKVRAALGALGFVPPYLGSGDESVNSFFRRHLGQEVAERLVAPFVSGVYAGDPQQLSAAAAFRRIAQLEKLGGGLIAGALHLRRQQAPKPKPPTSVQMRPGELGSFKEGLAALPRAIAQQLKAPIHLQTPVQEITPDPKGGYLLRSGEQTWRARSVVLATPAYQTAELVAPFQPAIARVLATIPYPTVACVVLAYPAGLGRSVRPGFGVTIPRSQGIRTLGTIWSSCLFPQRTPAGWQVFTSLIGGATDPDLASLSEEAIVQQVQQDLNRLLDLPAAKARLLGMKVWRRAIPQYMVGYPEQWQQVTHALSQTPGLFLCSNYAEGVALGDRVEHGNRTAAAVAAYLSGGQP",+ (‘+’ per each 10-fold resistance),++++ (‘+’ per each 10-fold resistance),++ (‘+’ per each 10-fold resistance),++ (‘+’ per each 10-fold resistance),+ (‘+’ per each 10-fold resistance),++ (‘+’ per each 10-fold resistance),++++ (‘+’ per each 10-fold resistance)
"CyPPO19 I408R + F360M: variant of CyPPO19 PPO protein (SEQ ID NO: 1) (protein, Synthetic_PPO of Thermosynechococcus elongatus PKUAC-SCTE542 (comprising GenBank No. CP032152.1)) MSEVDVAIVGGGLSGLSLAWRLQQSAPQYSVVLLEASDRLGGNITTQTAEGFVWELGPNSFAPTPALLQLIAEVGLQSELIRGDRHLPRYIYWRGQLYPLQPTRPLALATSNLLSPWGKVRAALGALGFVPPYLGSGDESVNSFFRRHLGQEVAERLVAPFVSGVYAGDPQQLSAAAAFRRIAQLEKLGGGLIAGALHLRRQQAPKPKPPTSVQMRPGELGSFKEGLAALPRAIAQQLKAPIHLQTPVQEITPDPKGGYLLRSGEQTWRARSVVLATPAYQTAELVAPFQPAIARVLATIPYPTVACVVLAYPAGLGRSVRPGFGVLIPRSQGIRTLGTIWSSCLFPQRTPAGWQVFTSMIGGATDPDLASLSEEAIVQQVQQDLNRLLDLPAAKARLLGMKVWRRARPQYMVGYPEQWQQVTHALSQTPGLFLCSNYAEGVALGDRVEHGNRTAAAVAAYLSGGQP",+ (‘+’ per each 10-fold resistance),++ (‘+’ per each 10-fold resistance),+ (‘+’ per each 10-fold resistance),+ (‘+’ per each 10-fold resistance),++ (‘+’ per each 10-fold resistance),+ (‘+’ per each 10-fold resistance),+++ (‘+’ per each 10-fold resistance)
"CyPPO19 I408W + F360I: variant of CyPPO19 PPO protein (SEQ ID NO: 1) (protein, Synthetic_PPO of Thermosynechococcus elongatus PKUAC-SCTE542 (comprising GenBank No. CP032152.1)) MSEVDVAIVGGGLSGLSLAWRLQQSAPQYSVVLLEASDRLGGNITTQTAEGFVWELGPNSFAPTPALLQLIAEVGLQSELIRGDRHLPRYIYWRGQLYPLQPTRPLALATSNLLSPWGKVRAALGALGFVPPYLGSGDESVNSFFRRHLGQEVAERLVAPFVSGVYAGDPQQLSAAAAFRRIAQLEKLGGGLIAGALHLRRQQAPKPKPPTSVQMRPGELGSFKEGLAALPRAIAQQLKAPIHLQTPVQEITPDPKGGYLLRSGEQTWRARSVVLATPAYQTAELVAPFQPAIARVLATIPYPTVACVVLAYPAGLGRSVRPGFGVLIPRSQGIRTLGTIWSSCLFPQRTPAGWQVFTSIIGGATDPDLASLSEEAIVQQVQQDLNRLLDLPAAKARLLGMKVWRRAWPQYMVGYPEQWQQVTHALSQTPGLFLCSNYAEGVALGDRVEHGNRTAAAVAAYLSGGQP",+ (‘+’ per each 10-fold resistance),+++ (‘+’ per each 10-fold resistance),+++ (‘+’ per each 10-fold resistance),++ (‘+’ per each 10-fold resistance),+++ (‘+’ per each 10-fold resistance),+++ (‘+’ per each 10-fold resistance),++++ (‘+’ per each 10-fold resistance)
"CyPPO19 L327T + F360T: variant of CyPPO19 PPO protein (SEQ ID NO: 1) (protein, Synthetic_PPO of Thermosynechococcus elongatus PKUAC-SCTE542 (comprising GenBank No. CP032152.1)) MSEVDVAIVGGGLSGLSLAWRLQQSAPQYSVVLLEASDRLGGNITTQTAEGFVWELGPNSFAPTPALLQLIAEVGLQSELIRGDRHLPRYIYWRGQLYPLQPTRPLALATSNLLSPWGKVRAALGALGFVPPYLGSGDESVNSFFRRHLGQEVAERLVAPFVSGVYAGDPQQLSAAAAFRRIAQLEKLGGGLIAGALHLRRQQAPKPKPPTSVQMRPGELGSFKEGLAALPRAIAQQLKAPIHLQTPVQEITPDPKGGYLLRSGEQTWRARSVVLATPAYQTAELVAPFQPAIARVLATIPYPTVACVVLAYPAGLGRSVRPGFGVTIPRSQGIRTLGTIWSSCLFPQRTPAGWQVFTSTIGGATDPDLASLSEEAIVQQVQQDLNRLLDLPAAKARLLGMKVWRRAIPQYMVGYPEQWQQVTHALSQTPGLFLCSNYAEGVALGDRVEHGNRTAAAVAAYLSGGQP",+ (‘+’ per each 10-fold resistance),+ (‘+’ per each 10-fold resistance),+ (‘+’ per each 10-fold resistance),+ (‘+’ per each 10-fold resistance),+ (‘+’ per each 10-fold resistance),+ (‘+’ per each 10-fold resistance),++ (‘+’ per each 10-fold resistance)
